Key:
[1] = biological target: T1, antigen of the potency binding ELISA of Example 1 (not named); assay: binding ELISA (potency assay), antigen not named; lot stored in polypropylene cryovial
T1 construct: kept apart from m2 so as not to guess

[2] = biological target: T1, antigen of the potency binding ELISA of …; assay: binding ELISA, antigen not named; third lot (reference standard) stored in PETG serum vial
[3] = biological target: T1, antigen of the potency binding ELISA of …; assay: binding ELISA (potency assay), antigen not named; lot stored in glass serum containers
[4] = biological target: T1, antigen of the potency binding ELISA of …; assay: binding (potency) ELISA, OD 450 nm against Log10 [mAb]; clinical drug substance lot stored in polypropylene cryovial; coated antigen not named
[5] = biological target: T1, antigen of the potency binding ELISA of …; assay: binding (potency) ELISA, OD 450 nm against Log10 [mAb]; reference standard (tox) lot stored in polypropylene cryovial 3; coated antigen not named; the table cell has no unit, ug/ml is taken from the concentration axis
[6] = biological target: T1, antigen of the potency binding ELISA of …; assay: binding (potency) ELISA, OD 450 nm against Log10 [mAb]; reference standard (tox) lot stored in PETG serum vial; coated antigen not named; the table cell has no unit, ug/ml is taken from the concentration axis
[7] = biological target: T2, recombinant human vimentin (human, UniProt P08670 1-466, limits assumed); assay: BLI, Octet HTX, 25 C; pritumumab on anti-human-Fc (AHC) biosensors, recombinant human vimentin as analyte (300 nM start, 1:3, 7 points), 1:1 model
T2 construct: also called recombinant vimentin
Procedure: (§1) To determine binding affinity of the antibody Pritumumab for vimentin. Octet HTX was employed to measure the antibody binding to human vimentin. Binding experiments were performed on Octet HTX at 25° C. Pritumumab (10 ug/ml) was loaded onto Anti-Human-Fc (AHC) biosensors. Loaded sensors were dipped into a serial of antigen dilutions (recombinant human vimentin) (300 nM start, 1:3 down, 7 points). Kinetic constants were calculated using a monovalent (1:1) model.

[8] = biological target: T1, antigen of the potency binding ELISA of …; assay: binding ELISA (potency assay), antigen not named; lot stored in PETG serum vial
[9] = biological target: T1, antigen of the potency binding ELISA of …; assay: binding (potency) ELISA, OD 450 nm against Log10 [mAb]; reference standard (tox) lot stored in polypropylene cryovial 1; coated antigen not named; the table cell has no unit, ug/ml is taken from the concentration axis
[10] = biological target: T2, recombinant human vimentin; assay: BLI, Octet HTX, 25 C; pritumumab on anti-human-Fc (AHC) biosensors, recombinant human vimentin as analyte, 1:1 model
Procedure: as §1

[11] = biological target: T1, antigen of the potency binding ELISA of …; assay: binding (potency) ELISA, OD 450 nm against Log10 [mAb]; reference standard (tox) lot stored in polypropylene cryovial 2; coated antigen not named; the table cell has no unit, ug/ml is taken from the concentration axis
[12] = biological target: T1, antigen of the potency binding ELISA of …; assay: binding ELISA, antigen not named; third lot (reference standard) stored in polypropylene cryovials, 3 vials

T2 sequence (P08670 whole entry): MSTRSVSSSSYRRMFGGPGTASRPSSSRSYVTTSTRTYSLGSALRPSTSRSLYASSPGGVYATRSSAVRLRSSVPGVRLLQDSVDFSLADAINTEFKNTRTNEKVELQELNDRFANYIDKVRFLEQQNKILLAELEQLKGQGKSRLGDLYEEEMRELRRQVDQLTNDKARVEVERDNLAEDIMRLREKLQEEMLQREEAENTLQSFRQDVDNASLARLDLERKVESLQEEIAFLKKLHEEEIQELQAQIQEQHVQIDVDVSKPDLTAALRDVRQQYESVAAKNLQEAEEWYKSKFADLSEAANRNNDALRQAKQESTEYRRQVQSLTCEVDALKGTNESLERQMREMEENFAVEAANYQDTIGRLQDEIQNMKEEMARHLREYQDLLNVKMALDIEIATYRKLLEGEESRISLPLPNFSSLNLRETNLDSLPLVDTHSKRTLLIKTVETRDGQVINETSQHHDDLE

B1: pritumumab (antibody, human IgG1, kappa, V domains shown)
VH: EVQLLESGGDLVQPGGSLRLSCAASGFTFSNYAMSWVRQAPGKGLEWVSAITPSGGSTNYADSVKGRFTISRDNSQNTLYLQMNSLRVEDTAVYICGRVPYRSTWYPLYWGQGTLVTVSS
VL: DIQMTQSPSSLSASVGDRVTITCRASQDISNYLAWFQQKPGKAPKSLIYAASSLHSKVPTQFSGSGSGTDFTLTISSLQPEDFATYYCLQYSTYPITFGGGTKVEIKR
notes: Several lots stored in different containers (glass, PETG, polypropylene) were tested; also called Pritumumab human monoclonal antibody
EC50 [1]: 20 µg/mL
EC50 [2]: 11 µg/mL
EC50 [3]: 8.25 µg/mL
EC50 [4]: 20.1 µg/mL
EC50 [5]: 40.2 µg/mL
EC50 [6]: 11.4 µg/mL
Kd [7]: 7.55 nM
EC50 [8]: 9.6 µg/mL
EC50 [9]: 38 µg/mL
koff [10]: 0.000443 s⁻¹
kon [10]: 58700 M⁻¹ s⁻¹
EC50 [11]: 37.1 µg/mL
EC50 [12]: 37 to 40 µg/mL

Reference: patent publication US12540174 (NASCENT BIOTECH, dated 2026)
